The subject of series [1] is HeLa Kyoto. The experiment in a line: solubility change mitosis vs G1/S (difference of NP-40 vs SDS log2 ratios) (log2 ratio difference); higher = more soluble in mitosis.
Series [2] relates to HeLa Kyoto. The experiment in a line: solubility in G1/S (NP-40 vs SDS abundance) (log2 ratio); higher = more soluble. Particulars: cell cycle stage: G1/S.
In series [3] the test system is HeLa Kyoto. As to the kind of experiment: thermal stability score vs G1/S (z-score of summed log2 fold changes over temperatures); higher = more thermally stable than in G1/S.
Series [4] concerns HeLa Kyoto. As to the kind of experiment: melting temperature (median over replicates), in situ; higher = more thermally stable.
[5] abbreviates: cell cycle stage: early G1 (4.5 h after nocodazole release).
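For melting temperature (median over replicates), in situ in this document: HeLa Kyoto cells synchronized by double thymidine or nocodazole block, proteins quantified by TMT10plex mass spectrometry, three independent biological replicates.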
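For solubility change mitosis vs G1/S (difference of NP-40 vs SDS log2 ratios) in this document: synchronized HeLa Kyoto cells (double thymidine block for G1/S, nocodazole release for mitosis), protein amounts in NP-40 versus SDS lysates quantified by mass spectrometry, three biological replicates.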
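For solubility in G1/S (NP-40 vs SDS abundance) in this document: HeLa Kyoto cells arrested at G1/S by double thymidine block, proteins quantified by TMT10plex mass spectrometry in mild NP-40 versus SDS extracts, three biological replicates.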
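For thermal stability score vs G1/S (z-score of summed log2 fold changes over temperatures) in this document: synchronized HeLa Kyoto cells, proteins quantified by TMT10plex mass spectrometry, three biological replicates, mitosis taken 0.5 h after nocodazole release, G1/S directly after double thymidine block.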

As to “MATSVLCCLRCCRDGGTGHIPLKEMPAVQLDTQHMGTDVVIVKNGRRICGTGGCLASAPLHQNKSYFEFKIQSTGIWGIGVATQKVNLNQIPLGRDMHSLVMRNDGALYHNNEEKNRLPANSLPQEGDVVGITYDHVELNVYLNGKNMHCPASGIRGTVYPVVYVDDSAILDCQFSEFYHTPPPGFEKILFEQQIF [SPRYD7]”, the “solubility change mitosis (log2)” value in series [1] is -0.19. Also, the “solubility in G1/S (log2)” value in series [2] is 0.156. In addition, the thermal stability score in series [3] (setting [5]) is 0.0977; in series [3] (cell cycle stage: mitosis) it was -1.67. Further, the melting temperature in series [4] (cell cycle stage: G1/S) stood at 52.6 °C; in series [4] (cell cycle stage: mitosis) it was 54.2 °C.

As to “MATTAAPAGGARNGAGPEWGGFEENIQGGGSAVIDMENMDDTSGSSFEDMGELHQRLREEEVDADAADAAAAEEEDGEFLGMKGFKGQLSRQVADQMWQAGKRQASRAFSLYANIDILRPYFDVEPAQVRSRLLESMIPIKMVNFPQKIAGELYGPLMLVFTLVAILLHGMKTSDTIIREGTLMGTAIGTCFGYWLGVSSFIYFLAYLCNAQITMLQMLALLGYGLFGHCIVLFITYNIHLHALFYLFWLLVGGLSTLRMVAVLVSRTVGPTQRLLLCGTLAALHMLFLLYLHFAYHKVVEGILDTLEGPNIPPIQRVPRDIPAMLPAARLPTTVLNATAKAVAVTLQSH [YIPF3]”, the “solubility change mitosis (log2)” value in series [1] is -0.0133. For the same sequence, the “solubility in G1/S (log2)” value in series [2] was -0.107. For the same sequence, the results for the thermal stability score in series [3] (setting [5]) and in series [3] (cell cycle stage: mitosis) were -2.34 and -3.63, respectively. Besides, the melting temperature in series [4] (cell cycle stage: G1/S) came to 55.9 °C; in series [4] (cell cycle stage: mitosis), 55.7 °C.

Consider “MATYLEFIQQNEERDGVRFSWNVWPSSRLEATRMVVPLACLLTPLKERPDLPPVQYEPVLCSRPTCKAVLNPLCQVDYRAKLWACNFCFQRNQFPPAYGGISEVNQPAELMPQFSTIEYVIQRGAQSPLIFLYVVDTCLEEDDLQALKESLQMSLSLLPPDALVGLITFGRMVQVHELSCEGISKSYVFRGTKDLTAKQIQDMLGLTKPAMPMQQARPAQPQEHPFASSRFLQPVHKIDMNLTDLLGELQRDPWPVTQGKRPLRSTGVALSIAVGLLEGTFPNTGARIMLFTGGPPTQGPGMVVGDELKIPIRSWHDIEKDNARFMKKATKHYEMLANRTAANGHCIDIYACALDQTGLLEMKCCANLTGGYMVMGDSFNTSLFKQTFQRIFTKDFNGDFRMAFGATLDVKTSRELKIAGAIGPCVSLNVKGPCVSENELGVGGTSQWKICGLDPTSTLGIYFEVVNQHNTPIPQGGRGAIQFVTHYQHSSTQRRIRVTTIARNWADVQSQLRHIEAAFDQEAAAVLMARLGVFRAESEEGPDVLRWLDRQLIRLCQKFGQYNKEDPTSFRLSDSFSLYPQFMFHLRRSPFLQVFNNSPDESSYYRHHFARQDLTQSLIMIQPILYSYSFHGPPEPVLLDSSSILADRILLMDTFFQIVIYLGETIAQWRKAGYQDMPEYENFKHLLQAPLDDAQEILQARFPMPRYINTEHGGSQARFLLSKVNPSQTHNNLYAWGQETGAPILTDDVSLQVFMDHLKKLAVSSAC [SEC23B]”, for which the “solubility change mitosis (log2)” value in series [1] was -0.175. The “solubility in G1/S (log2)” value in series [2] was 0.0443. For the same sequence, the figures for the thermal stability score in series [3] (setting [5]) and in series [3] (cell cycle stage: mitosis) were 0.832 and 0.395, respectively. Further, the melting temperature came to 50.4 °C in series [4] (cell cycle stage: G1/S) and 50.9 °C in series [4] (cell cycle stage: mitosis).

On to “MAVAPRLFGGLCFRFRDQNPEVAVEGRLPISHSCVGCRRERTAMATVAANPAAAAAAVAAAAAVTEDREPQHEELPGLDSQWRQIENGESGRERPLRAGESWFLVEKHWYKQWEAYVQGGDQDSSTFPGCINNATLFQDEINWRLKEGLVEGEDYVLLPAAAWHYLVSWYGLEHGQPPIERKVIELPNIQKVEVYPVELLLVRHNDLGKSHTVQFSHTDSIGLVLRTARERFLVEPQEDTRLWAKNSEGSLDRLYDTHITVLDAALETGQLIIMETRKKDGTWPSAQLHVMNNNMSEEDEDFKGQPGICGLTNLGNTCFMNSALQCLSNVPQLTEYFLNNCYLEELNFRNPLGMKGEIAEAYADLVKQAWSGHHRSIVPHVFKNKVGHFASQFLGYQQHDSQELLSFLLDGLHEDLNRVKKKEYVELCDAAGRPDQEVAQEAWQNHKRRNDSVIVDTFHGLFKSTLVCPDCGNVSVTFDPFCYLSVPLPISHKRVLEVFFIPMDPRRKPEQHRLVVPKKGKISDLCVALSKHTGISPERMMVADVFSHRFYKLYQLEEPLSSILDRDDIFVYEVSGRIEAIEGSREDIVVPVYLRERTPARDYNNSYYGLMLFGHPLLVSVPRDRFTWEGLYNVLMYRLSRYVTKPNSDDEDDGDEKEDDEEDKDDVPGPSTGGSLRDPEPEQAGPSSGVTNRCPFLLDNCLGTSQWPPRRRRKQLFTLQTVNSNGTSDRTTSPEEVHAQPYIAIDWEPEMKKRYYDEVEAEGYVKHDCVGYVMKKAPVRLQECIELFTTVETLEKENPWYCPSCKQHQLATKKLDLWMLPEILIIHLKRFSYTKFSREKLDTLVEFPIRDLDFSEFVIQPQNESNPELYKYDLIAVSNHYGGMRDGHYTTFACNKDSGQWHYFDDNSVSPVNENQIESKAAYVLFYQRQDVARRLLSPAGSSGAPASPACSSPPSSEFMDVN [USP11]”, for which the “solubility change mitosis (log2)” value in series [1] was -0.0102. The “solubility in G1/S (log2)” value in series [2] was -0.0353. Further, the thermal stability score in series [3] (setting [5]) turned out to be 2.48; in series [3] (cell cycle stage: mitosis), 4.39. Also, the melting temperature in series [4] (cell cycle stage: G1/S) amounted to 47.3 °C; in series [4] (cell cycle stage: mitosis) it was 48.1 °C.

On to “MAVARAALGPLVTGLYDVQAFKFGDFVLKSGLSSPIYIDLRGIVSRPRLLSQVADILFQTAQNAGISFDTVCGVPYTALPLATVICSTNQIPMLIRRKETKDYGTKRLVEGTINPGETCLIIEDVVTSGSSVLETVEVLQKEGLKVTDAIVLLDREQGGKDKLQAHGIRLHSVCTLSKMLEILEQQKKVDAETVGRVKRFIQENVFVAANHNGSPLSIKEAPKELSFGARAELPRIHPVASKLLRLMQKKETNLCLSADVSLARELLQLADALGPSICMLKTHVDILNDFTLDVMKELITLAKCHEFLIFEDRKFADIGNTVKKQYEGGIFKIASWADLVNAHVVPGSGVVKGLQEVGLPLHRGCLLIAEMSSTGSLATGDYTRAAVRMAEEHSEFVVGFISGSRVSMKPEFLHLTPGVQLEAGGDNLGQQYNSPQEVIGKRGSDIIIVGRGIISAADRLEAAEMYRKAAWEAYLSRLGV [UMPS]”, for which the “solubility change mitosis (log2)” value in series [1] was -0.08. Moreover, the “solubility in G1/S (log2)” value in series [2] came out at 0.169. The thermal stability score in series [3] (setting [5]) is -0.259; in series [3] (cell cycle stage: mitosis), -1.37. For the same sequence, the melting temperature in series [4] (cell cycle stage: G1/S) amounted to 53.9 °C; in series [4] (cell cycle stage: mitosis), 53 °C.

For the origin of these results see the supplement of paper PMC5998384.
